{
  "source": "paper PMC6344896",
  "about": "“HuR biological function involves RRM3-mediated dimerization and RNA binding by all three RRMs” (Nucleic Acids Research, 2018)",
  "biological_target": "the molecule itself",
  "assay": "SAXS; concentration series in solution without RNA (Trx-RRM3 1.25–10 mg/ml; untagged full-length HuR WT and W261E, lowest 0.5 mg/ml); molecular weights from the Porod volume",
  "data": [
    {"protein": "Trx-RRM3 (HuR RRM3 fused to the C-terminus of E. coli thioredoxin 1 via a GSAM linker) (domain or fragment, human, UniProt Q15717-1 243-326, looked up, Human HuR/ELAVL1 (NP_001410.2), third RNA recognition motif; Chain order: E. coli thioredoxin 1, Gly-Ser-Ala-Met, RRM3; Thioredoxin structure 2TRX was used for molecular replacement; also called RRM3-Trx; Trx-RRM3 fusion protein; source: E. coli BL21(DE3), purified; not shown: Trx (E. coli thioredoxin 1, uncleavable GSAM linker), N-terminal, kept) GWCIFIYNLGQDADEGILWQMFGPFGAVTNVKVIRDFNTNKCKGFGFVTMTNYEEAAMAIASLNGYRLGDKILQVSFKTNKSHK", "values": [
      {"measurement": "stoichiometry N", "result": 2}
    ]}
  ]
}
